# Source: paper PMC11808424
# Molecular target: soluble His‐tagged human LRP4 (low‐density lipoprotein receptor‐related protein 4) (human) (UniProt O75096)
# Test: SPR
# Chain of UniProt O75096 (O75096 21-1725): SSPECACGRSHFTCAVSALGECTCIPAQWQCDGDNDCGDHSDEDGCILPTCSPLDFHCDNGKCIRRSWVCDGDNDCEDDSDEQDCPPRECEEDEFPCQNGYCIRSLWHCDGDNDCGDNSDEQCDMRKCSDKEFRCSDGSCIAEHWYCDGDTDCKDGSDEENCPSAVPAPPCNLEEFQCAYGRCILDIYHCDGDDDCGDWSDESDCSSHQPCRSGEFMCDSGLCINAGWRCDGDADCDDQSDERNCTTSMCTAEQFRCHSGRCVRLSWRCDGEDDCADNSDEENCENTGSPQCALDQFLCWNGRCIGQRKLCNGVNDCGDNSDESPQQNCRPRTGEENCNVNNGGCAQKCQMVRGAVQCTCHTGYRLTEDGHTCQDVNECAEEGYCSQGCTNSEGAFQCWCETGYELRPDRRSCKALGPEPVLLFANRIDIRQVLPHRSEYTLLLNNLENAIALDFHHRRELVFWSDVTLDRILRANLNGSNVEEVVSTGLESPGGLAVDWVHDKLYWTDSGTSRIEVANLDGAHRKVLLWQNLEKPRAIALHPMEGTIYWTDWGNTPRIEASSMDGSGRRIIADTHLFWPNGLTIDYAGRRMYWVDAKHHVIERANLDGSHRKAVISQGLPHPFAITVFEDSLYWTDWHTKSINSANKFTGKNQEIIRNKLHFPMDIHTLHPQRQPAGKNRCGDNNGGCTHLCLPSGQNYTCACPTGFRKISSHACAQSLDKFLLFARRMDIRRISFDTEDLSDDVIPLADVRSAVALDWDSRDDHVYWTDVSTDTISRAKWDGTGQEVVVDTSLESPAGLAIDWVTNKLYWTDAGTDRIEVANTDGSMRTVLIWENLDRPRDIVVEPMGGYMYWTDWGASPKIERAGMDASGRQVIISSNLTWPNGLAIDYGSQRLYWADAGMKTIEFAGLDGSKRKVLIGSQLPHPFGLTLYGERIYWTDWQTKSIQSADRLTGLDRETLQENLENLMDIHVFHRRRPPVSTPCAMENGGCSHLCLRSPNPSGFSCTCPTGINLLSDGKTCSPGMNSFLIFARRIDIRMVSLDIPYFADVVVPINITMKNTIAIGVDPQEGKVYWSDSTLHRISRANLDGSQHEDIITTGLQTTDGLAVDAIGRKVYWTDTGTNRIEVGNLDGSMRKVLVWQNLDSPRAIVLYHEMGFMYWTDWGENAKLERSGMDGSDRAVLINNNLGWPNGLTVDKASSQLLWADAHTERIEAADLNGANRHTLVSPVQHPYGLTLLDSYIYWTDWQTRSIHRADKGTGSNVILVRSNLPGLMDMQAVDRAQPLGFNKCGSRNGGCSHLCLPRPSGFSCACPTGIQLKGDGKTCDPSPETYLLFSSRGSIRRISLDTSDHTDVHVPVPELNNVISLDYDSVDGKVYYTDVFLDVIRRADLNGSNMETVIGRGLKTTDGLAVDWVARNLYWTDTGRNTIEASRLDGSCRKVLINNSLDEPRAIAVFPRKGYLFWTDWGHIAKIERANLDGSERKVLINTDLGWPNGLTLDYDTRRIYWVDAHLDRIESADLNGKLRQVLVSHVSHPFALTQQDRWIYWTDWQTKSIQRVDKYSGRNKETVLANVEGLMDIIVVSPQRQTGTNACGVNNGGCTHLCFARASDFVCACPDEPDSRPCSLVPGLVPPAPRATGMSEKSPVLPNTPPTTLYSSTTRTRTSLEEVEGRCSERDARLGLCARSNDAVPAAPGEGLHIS
row,Kd [µM],Substance
1,20.2,purified soluble Scl_(K75Q) (natural protein)
2,7.52,purified soluble Scl_(V136D) (natural protein)
3,35.9,purified soluble Scl_(K75E) (natural protein)
